Measured values reported in patent publication US20260242485A1 (LEPU BIOPHARMA, published 2026).
Substitutions are numbered along the chain they refer to. Names may count otherwise. Values belong to the binder of their own block, whether it stands above or below them.

Legend:
[1] = target: T1, cynomolgus CD16 expressed on CHO-K1 cells (cynomolgus, UniProt Q8SPW2 17-254); assay: flow cytometry, CHO-K1-cyno CD16 cells, Alexa Fluor 647 anti-human IgG Fc, geometric mean
T1 construct: whole, on cells; also called cyno CD16; CHO-K1-cynoCD16
T1 sequence (Q8SPW2 17-254): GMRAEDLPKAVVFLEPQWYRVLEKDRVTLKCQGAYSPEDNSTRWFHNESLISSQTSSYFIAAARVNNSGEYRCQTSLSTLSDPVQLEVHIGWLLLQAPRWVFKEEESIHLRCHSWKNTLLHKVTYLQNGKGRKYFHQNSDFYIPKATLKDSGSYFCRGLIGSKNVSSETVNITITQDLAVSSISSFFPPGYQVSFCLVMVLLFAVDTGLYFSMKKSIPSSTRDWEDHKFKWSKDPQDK
Procedure: (§1) In order to evaluate the binding activity of the chimeric mAbs to human CD16A expressed on cells, cell-based binding assay was employed as followed. […] The antibody dilutions were incubated with 1×10⁵ indicated cells in the 96-well microplate for one hour at 4° C. The antibodies binding to the antigen on the cell surface were detected with PE fluorophore-conjugated anti-human IgG Fc secondary antibodies (ThermoFisher scientific, Cat. No. 12-4998-82) at a dilution rate of 1:1000. Cells were analyzed by flow cytometer LSRFortessa Cell Analyzer (BD Biosciences). Data were analyzed with Flowjo 10.0 software. The graph and statistics analysis were generated with four-parameter nonlinear regression curve fit in Graphpad Prism 9 software.
(§2) The assay was performed following the protocol described above. The antibodies binding to the antigen on the cell surface were detected with Alexa Fluor® 647 AffiniPure™ F(ab′)₂ fragment goat anti-human IgG Fcγ fragment specific secondary antibody (Jackson Immuno Research, Cat. No. 109-606-098) at a dilution rate of 1:2000.

[2] = target: T1, cynomolgus CD16 expressed on CHO-K1 …; assay: flow cytometry, CHO-K1-cyno CD16 cells, geometric mean
Procedure: as §1
(§3) The assay was performed following the protocol described above.

[3] = target: T2, human CD16A-158V expressed on CHO-K1 cells (human, UniProt P08637 17-254); assay: flow cytometry, CHO-K1-hCD16A-158V cells, geometric mean
T2 construct: whole, on cells; also called hCD16A-158V; CHO-K1-hCD16A-158V
T2 sequence (P08637 17-254 F176V): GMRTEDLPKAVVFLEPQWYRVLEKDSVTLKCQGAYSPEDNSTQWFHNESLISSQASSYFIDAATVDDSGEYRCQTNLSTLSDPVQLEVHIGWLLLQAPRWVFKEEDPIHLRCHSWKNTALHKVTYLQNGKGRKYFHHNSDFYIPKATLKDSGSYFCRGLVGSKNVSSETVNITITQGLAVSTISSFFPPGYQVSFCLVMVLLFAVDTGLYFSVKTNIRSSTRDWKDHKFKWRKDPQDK
Procedure: as §1, §3

[4] = target: T3, human CD16B-NA1 expressed on CHO-K1 cells (human, UniProt O75015 17-200); assay: flow cytometry, CHO-K1-hCD16B-NA1 cells, Alexa Fluor 647 anti-human IgG Fc, geometric mean
T3 construct: whole, on cells; also called hCD16B-NA1; CHO-K1-hCD16B-NA1
T3 sequence (O75015 other isoform, or with tags, fused parts or gaps): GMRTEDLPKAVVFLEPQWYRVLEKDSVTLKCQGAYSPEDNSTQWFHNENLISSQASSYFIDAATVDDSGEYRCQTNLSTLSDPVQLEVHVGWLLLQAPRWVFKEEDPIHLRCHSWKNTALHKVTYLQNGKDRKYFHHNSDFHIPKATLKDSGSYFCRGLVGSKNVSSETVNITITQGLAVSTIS
Procedure: as §1, §2

[5] = target: T4, human CD16A-158F expressed on CHO-K1 cells (human, UniProt P08637 17-254); assay: flow cytometry, CHO-K1-hCD16A-158F cells, Alexa Fluor 647 anti-human IgG Fc, geometric mean
T4 construct: whole, on cells
T4 sequence (P08637 17-254): as the sequence (P08637 17-254 F176V) above, with V160F counted along it
Procedure: as §1, §2

[6] = target: T2, human CD16A-158V expressed on CHO-K1 …; assay: flow cytometry, CHO-K1-hCD16A-158V cells, Alexa Fluor 647 anti-human IgG Fc, geometric mean
Procedure: as §1, §2

[7] = target: T4, human CD16A-158F expressed on CHO-K1 …; assay: flow cytometry, CHO-K1-hCD16A-158F cells, geometric mean
Procedure: as §1, §3

[8] = target: T3, human CD16B-NA1 expressed on CHO-K1 …; assay: flow cytometry, CHO-K1-hCD16B-NA1 cells, geometric mean
[9] = target: T5, human GPC3 on HepG2 cells (human, UniProt P51654 25-554); assay: flow cytometry, HepG2 cells (GPC3 positive), geometric mean
T5 construct: whole, on cells; also called GPC3-positive HepG2 cells
T5 sequence (P51654 25-554 limits assumed): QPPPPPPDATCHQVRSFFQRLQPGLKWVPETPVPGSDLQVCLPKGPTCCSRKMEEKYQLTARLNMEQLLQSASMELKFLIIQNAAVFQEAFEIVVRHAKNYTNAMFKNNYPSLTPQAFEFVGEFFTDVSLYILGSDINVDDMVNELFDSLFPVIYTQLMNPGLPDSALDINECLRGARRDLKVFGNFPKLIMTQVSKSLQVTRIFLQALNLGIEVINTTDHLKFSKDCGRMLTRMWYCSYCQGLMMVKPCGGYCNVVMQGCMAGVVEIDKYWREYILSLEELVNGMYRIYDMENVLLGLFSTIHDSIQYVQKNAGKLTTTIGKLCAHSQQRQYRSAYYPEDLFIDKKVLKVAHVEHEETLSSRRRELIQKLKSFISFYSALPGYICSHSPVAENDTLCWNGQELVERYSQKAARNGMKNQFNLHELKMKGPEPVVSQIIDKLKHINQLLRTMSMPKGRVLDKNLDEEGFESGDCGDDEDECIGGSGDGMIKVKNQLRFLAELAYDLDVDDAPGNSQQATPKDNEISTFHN

[10] = target: T4, human CD16A-158F expressed on CHO-K1 …; assay: flow cytometry, CHO-K1-hCD16A-158F cells, geometric mean; remark: listed apart in the source
[11] = target: T2, human CD16A-158V expressed on CHO-K1 …; assay: flow cytometry, CHO-K1-hCD16A-158V cells, geometric mean; remark: listed apart in the source
[12] = target: T4, human CD16A-158F expressed on CHO-K1 …; assay: flow cytometry, CHO-K1-hCD16A-158F cells, geometric mean; remark: listed apart in the source
Excerpt: (§4) The purpose of the assay was to evaluate the binding of BsAb to each of the hFcγRs.

[13] = target: T2, human CD16A-158V expressed on CHO-K1 …; assay: flow cytometry, CHO-K1-hCD16A-158V cells, geometric mean; remark: listed apart in the source
Excerpt: as §4

[14] = target: T6, human CD32B expressed on CHO-K1 cells (human, UniProt P31994 43-310); assay: flow cytometry, CHO-K1-hCD32B cells, geometric mean
T6 construct: whole, on cells; also called hCD32B
T6 sequence (looked up): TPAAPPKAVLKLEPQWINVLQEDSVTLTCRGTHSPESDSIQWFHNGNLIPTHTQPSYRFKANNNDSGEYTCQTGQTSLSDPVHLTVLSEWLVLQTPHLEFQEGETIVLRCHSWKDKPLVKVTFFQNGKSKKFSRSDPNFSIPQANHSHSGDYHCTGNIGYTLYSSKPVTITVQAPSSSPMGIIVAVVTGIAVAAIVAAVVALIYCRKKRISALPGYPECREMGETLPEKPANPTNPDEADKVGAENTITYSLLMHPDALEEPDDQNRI
Excerpt: as §4

[15] = target: T7, mouse CCR8 expressed on CHO-K1 cells (mouse, UniProt P56484 1-353); assay: flow cytometry, CHO-K1 mCCR8 cells (CHO-K1 NC parental cells as control), PE anti-human IgG Fc, geometric mean
T7 construct: whole, on cells; also called mCCR8; murine CCR8
T7 sequence (looked up): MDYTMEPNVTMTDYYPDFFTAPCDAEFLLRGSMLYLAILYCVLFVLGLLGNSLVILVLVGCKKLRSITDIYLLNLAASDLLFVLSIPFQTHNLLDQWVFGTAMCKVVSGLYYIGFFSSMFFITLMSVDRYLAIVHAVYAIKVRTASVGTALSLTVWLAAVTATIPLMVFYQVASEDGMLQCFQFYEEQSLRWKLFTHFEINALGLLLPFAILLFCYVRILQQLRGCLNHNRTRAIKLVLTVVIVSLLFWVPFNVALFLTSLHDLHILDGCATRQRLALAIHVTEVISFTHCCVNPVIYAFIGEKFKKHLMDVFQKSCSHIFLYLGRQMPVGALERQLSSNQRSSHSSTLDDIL
Procedure: (§5) Briefly, HEK293 hCCR8 cell line, CHO-K1 mCCR8 cell line and the parental cell lines were first incubated with serially diluted 194A1G9 at 4° C. for 30 mins. After washing by FACS buffer, PE Goat anti-Human IgG Fc Secondary Antibody (eBioscience™, Invitrogen) was added to each well and incubated at 4° C. for 30 mins. Samples were washed twice with FACS staining buffer. The mean florescence intensity (MFI) of PE was evaluated by MACSQuant Analyzer 16.

[16] = target: T8, human CCR8 expressed on cells (human, UniProt P51685 1-355); assay: flow cytometry, HEK293 hCCR8 cells (HEK293 NC parental cells as control), PE anti-human IgG Fc, geometric mean
T8 construct: whole, on cells; also called hCCR8; HEK293 hCCR8 cell line
T8 sequence (P51685 whole entry): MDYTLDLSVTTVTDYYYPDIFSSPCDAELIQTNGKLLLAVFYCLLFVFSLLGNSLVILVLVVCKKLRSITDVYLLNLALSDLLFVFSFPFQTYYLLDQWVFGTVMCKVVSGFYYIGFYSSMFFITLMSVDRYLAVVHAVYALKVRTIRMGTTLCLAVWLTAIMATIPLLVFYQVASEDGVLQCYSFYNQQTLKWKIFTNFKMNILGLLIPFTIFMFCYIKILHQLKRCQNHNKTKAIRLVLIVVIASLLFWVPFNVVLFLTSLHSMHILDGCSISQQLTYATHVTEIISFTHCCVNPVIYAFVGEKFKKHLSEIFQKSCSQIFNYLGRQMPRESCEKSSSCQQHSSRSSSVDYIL
Procedure: as §5

B1: 45H6E8-z19 (antibody, human IgG1, V domains shown)
VH: QVQLVQSGAEVKKPGASVKVSCKVSGYTLTDYYMQWVRQAPGKGLEWIGWIDPENGDTEYAPKFQGRVTMTADTSTDTAYMELSSLRSEDTAVYYCTTGGNYVDWGQGTTVTVSS
VL: DIQMTQSPSFLSASVGDRVTITCKASQNVGTAVAWYQQKPGKAPKLLIYSASNRYTGVPDRFSGSGSGTDFTLTISSLQPEDFATYFCQQYSSYPLLTFGQGTRLEIK
notes: Human IgG1 LALAPG constant region; also called HU-VH1-6 / HU-VL1-3
EC50 (read off the curve) [1]: ~1 nM
EC50 (read off the curve) [2]: ~0.7 nM
EC50 (read off the curve) [3]: ~0.4 nM
binding result [4]: no binding (tested: 100 nM)
EC50 (read off the curve) [5]: ~0.4 nM
EC50 (read off the curve) [6]: ~0.4 nM
EC50 (read off the curve) [7]: ~0.4 nM

B3: 45H6E8-z13 (antibody, V domains shown)
VH: B1 VH with I48M, A72E, T97A
VL: B1 VL
notes: also called HU-VH1-1 / HU-VL1-3
EC50 (read off the curve) [1]: ~1 nM
binding result [4]: no binding (tested: 100 nM)
EC50 (read off the curve) [5]: ~0.4 nM
EC50 (read off the curve) [6]: ~0.4 nM

B5: 45H6E8-z20 (antibody, human IgG1, V domains shown)
VH: B1 VH with I48M, V68A
VL: B1 VL
notes: Human IgG1 LALAPG constant region; also called HU-VH1-7 / HU-VL1-3
EC50 (read off the curve) [1]: ~1 nM
EC50 (read off the curve) [2]: ~0.8 nM
EC50 (read off the curve) [3]: ~0.4 nM
binding result [4]: no binding (tested: 100 nM)
EC50 (read off the curve) [5]: ~0.4 nM
EC50 (read off the curve) [6]: ~0.4 nM
EC50 (read off the curve) [7]: ~0.4 nM

B6: 45H6E8-z17 (antibody, human IgG1, V domains shown)
VH: B1 VH with T30K, R67K, V68A
VL: B1 VL
notes: Human IgG1 LALAPG constant region; also called HU-VH1-5 / HU-VL1-3
EC50 (read off the curve) [1]: ~1 nM
binding result [4]: no binding (tested: 100 nM)
EC50 (read off the curve) [5]: ~0.4 nM
EC50 (read off the curve) [6]: ~0.4 nM

B7: CCR8-hIgG1DE (antibody)
heavy chain: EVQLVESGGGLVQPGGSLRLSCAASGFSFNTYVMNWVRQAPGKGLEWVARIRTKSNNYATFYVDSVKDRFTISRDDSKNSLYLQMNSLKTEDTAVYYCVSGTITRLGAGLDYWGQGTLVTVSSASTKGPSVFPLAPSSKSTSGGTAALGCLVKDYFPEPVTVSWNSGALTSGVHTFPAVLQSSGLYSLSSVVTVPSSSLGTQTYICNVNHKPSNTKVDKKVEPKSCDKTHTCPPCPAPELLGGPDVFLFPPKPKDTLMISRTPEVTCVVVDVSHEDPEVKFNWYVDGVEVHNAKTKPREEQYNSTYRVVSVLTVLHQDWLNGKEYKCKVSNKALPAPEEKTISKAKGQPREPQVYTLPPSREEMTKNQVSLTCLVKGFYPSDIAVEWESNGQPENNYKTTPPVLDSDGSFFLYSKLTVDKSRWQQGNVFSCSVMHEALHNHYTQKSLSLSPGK
light chain: DIVMTQSPLSLPVTPGEPASISCRSSKSLLHSNANTYLYWYLQKPGQSPQLLIYRMSNLASGVPDRFSGSGSGTAFTLKISRVEAEDVGVYYCMQHLEYPFTFGGGTKLEIKRTVAAPSVFIFPPSDEQLKSGTASVVCLLNNFYPREAKVQWKVDNALQSGNSQESVTEQDSKDSTYSLSSTLTLSKADYEKHKVYACEVTHQGLSSPVTKSFNRGEC
notes: also called eADCC CCR8 mAb with Fc-DE (S239D/I332E)
EC50 [12]: 1.4 nM
EC50 [13]: 0.8 nM
binding result [14]: binds

B8: CCR8-45H6E8-hIgG1 (bispecific antibody)
heavy: not shown
light: B7 light chain
notes: Format 1: anti-CCR8 IgG1 with wildtype Fc and 45H6E8 scFv at the C-terminus of each heavy chain; also called CCR8-45H6E8-hIgG1 BsAb; CCR8-45H6E8 WT BsAb
EC50 [12]: 0.095 nM
EC50 [13]: 0.1 nM
binding result [14]: binds

B11: 194A1G9 (antibody, V domains shown)
VH: QVQLQQSGTELVRPGASVTLSCKASGYTFTDHEMYWVKQTPVHGLEWIGAVDPETGSTAYNQKFKVKAILTADKSSSTAYMELRSLTSEDSAVYYCTSRLRRAMDNWGHGTSVTVSS
VL: DVVLTQTPLSLPVSPGDQASISCRSSQTLLHSSGNTYLHWFLQKPGQSPKLLIYKVSNRFSGVPDRFSGSGSGTDFTLKISRVEAEDLGVYFCSQNTHVPWTFGGGTKLEIK
notes: Detected with anti-human IgG Fc, so with a human Fc; also called surrogate anti-CCR8 antibody 194A1G9; in house anti-mCCR8 clone 194A1G9
EC50 (read off the curve) [15]: ~5 nM
EC50 (read off the curve) [16]: ~0.1 nM

Results, then the binder that gave them:

binding result [8]: no binding (tested: 100 nM)
EC50 (read off the curve) [2]: ~0.7 nM
EC50 (read off the curve) [3]: ~0.4 nM
EC50 (read off the curve) [7]: ~0.4 nM
B2: 45H6E8-z20p1 (antibody, V domains shown)
VH: B1 VH with I48M, N55Q, V68A
VL: B1 VL
notes: PTM-removed version of z20

binding result [8]: no binding (tested: 100 nM)
binding result [9]: no binding (tested: 100 nM)
EC50 (read off the curve) [10]: ~0.5 nM
EC50 (read off the curve) [2]: ~0.7 nM
EC50 (read off the curve) [3]: ~0.4 nM
EC50 (read off the curve) [11]: ~0.5 nM
EC50 (read off the curve) [7]: ~0.4 nM
B4: 45H6E8-z19p1 (antibody, V domains shown)
VH: B1 VH with N55Q
VL: B1 VL
notes: PTM-removed (N to Q in VH CDR2) version of z19

EC50 [12]: 1.2 nM
EC50 [13]: 0.75 nM
binding result [14]: binds
B9: CCR8-hIgG1DLE (antibody)
heavy chain: EVQLVESGGGLVQPGGSLRLSCAASGFSFNTYVMNWVRQAPGKGLEWVARIRTKSNNYATFYVDSVKDRFTISRDDSKNSLYLQMNSLKTEDTAVYYCVSGTITRLGAGLDYWGQGTLVTVSSASTKGPSVFPLAPSSKSTSGGTAALGCLVKDYFPEPVTVSWNSGALTSGVHTFPAVLQSSGLYSLSSVVTVPSSSLGTQTYICNVNHKPSNTKVDKKVEPKSCDKTHTCPPCPAPELLGGPDVFLFPPKPKDTLMISRTPEVTCVVVDVSHEDPEVKFNWYVDGVEVHNAKTKPREEQYNSTYRVVSVLTVLHQDWLNGKEYKCKVSNKALPLPEEKTISKAKGQPREPQVYTLPPSREEMTKNQVSLTCLVKGFYPSDIAVEWESNGQPENNYKTTPPVLDSDGSFFLYSKLTVDKSRWQQGNVFSCSVMHEALHNHYTQKSLSLSPGK
light chain: B7 light chain
notes: also called eADCC CCR8 mAb with Fc-DLE (S239D/A330L/I332E)

EC50 [12]: 3.5 nM
EC50 [13]: 0.45 nM
binding result [14]: binds
B10: CCR8-hIgG1Afucosylated (antibody)
heavy: not shown
light: B7 light chain
modifications: chain 1 pos 303 (EU N297): the Fc N-glycan lacks core fucose (afucosylated); the letters are unchanged
notes: also called anti-hCCR8 monoclonal antibody with Fc-afucosylated; copies: 2 + 2
